In patent US20240174755A1 (published 2024):
Values belong to the binder of their own block, whether it stands above or below them.

Legend:
[1] = target: human PDGFR β ECD (U-protein Express, Utrecht) (human) (UniProt P09619); experiment: dose response ELISA, PDGFR β ECD coated at 2 µg/ml, rabbit anti-VHH detection
[2] = target: human PDGFR β on HEK293-PDGFR β cells (human) (UniProt P09619); experiment: FACS dose response, 1 h at 37° C.
[3] = target: human PDGFR β on HEK293-PDGFR β cells (human) (UniProt P09619); experiment: FACS, 1-10 nM VHH-HL488, 1 h
[4] = target: human PDGFR β on HEK293-PDGFR β cells (human) (UniProt P09619); experiment: FACS dose response, dialyzed VHH-HL488 batch (data not shown)
[5] = target: T1, human PDGFRa (Sino Biological; Cat. Number 10556-HCCH) (human, UniProt P16234 24-524, limits assumed); experiment: direct ELISA, PDGFRa coated, streptavidin-HRP detection
T1 construct: Bought; construct not described; also called PDGFRα
Experimental: (§1) 96-well maxisorp (Nunc) immunosorp plates were coated with 2 ug/ml of human PDGFRa (Sino Biological; Cat. Number; 10556-HCCH) or 2 ug/ml human EGFR/HER1/ErbB1 Protein (His Tag, Sino Biological; Cat. Number; 10001-H08H) in PBS, 100 ul per well, at 4C overnight. Wells were washed thrice in PBS. Unspecific binding sites were blocked in 4% BSA/PBS for 1 h at RT, followed by washing thrice in PBS. VHH-biotin conjugates, diluted at 0.01-100 nM in 1% BSA/PBS, were incubated for 1 h at RT, followed by washing thrice in PBS. Streptavidin-horseradish peroxidase (HRP; GeneTex) was diluted 1:40,000 in 1% BSA/PBS and was incubated for 1 h at RT. PDGFRa or EGFR was detected with positive control antibodies rabbit anti-human PDGFRa/CD140a Antibody, (Cat no: 10556-R065) or rabbit anti-human EGFR/HER1/ErbB1 (Catalog no: 10001-R021, both from Sino Biological) diluted in 1% BSA/PBS at 1:5000 and were incubated for 1 h at RT, shaking. Secondary HRP-conjugated anti-rabbit-antibody was diluted at 1:5000 in 1% BSA/PBS and was incubated for 1 h at RT, shaking. Wells were washed 6 times in PBS. o-Phenylenediamine dihydrochloride (OPD; Sigma-Aldrich) was used as HRP substrate at 0.4 mg/ml in 0.05 M phosphate-citrate buffer pH 5.0 with 0.03% sodium perborate (Sigma-Aldrich), prepared according to the manufacturer's recommendations, and was used in volume of 100 ul per well. Reaction was allowed to proceed for 30 min at RT in dark, and was stopped by adding 50 ul of 1.5 M HCl. Optical density was measured at 492 nm on a Synergy H1 microplate reader (BioTek).
VHH-biotin binding to human PDGFRa was assessed using an ELISA, where wells were coated with PDGFRa, and VHH-biotin binding was detected using streptavidin-HRP with OPD as a substrate.

[6] = target: T2, human EGFR/HER1/ErbB1 Protein (His Tag, Sino Biological; Cat. Number 10001-H08H) (human, UniProt P00533 25-645); experiment: direct ELISA, EGFR coated, streptavidin-HRP detection
T2 construct: Bought; construct not described; not shown: His tag
Experimental: as §1

[7] = target: human PDGFR β on HEK293-PDGFR β cells (human) (UniProt P09619); experiment: FACS dose response, 1 h at 37° C. (MFI)
[8] = target: human PDGFR β on HEK293-PDGFR β cells (human) (UniProt P09619); experiment: HEK293-PDGFRβ cells with 500 uM liposome on ice, plate reader
[9] = target: human PDGFR β on HEK293-PDGFR β cells (human) (UniProt P09619); experiment: time course on HEK293-PDGFRβ cells, plate reader; not statistically significant
[10] = target: human PDGFR β on HEK293-PDGFR β cells (human) (UniProt P09619); experiment: time course on HEK293-PDGFRβ cells, plate reader
[11] = target: human PDGFR β on HEK293-PDGFR β cells (human) (UniProt P09619); experiment: HEK293-PDGFRβ cells with 500 uM liposome, plate reader (data not shown)
[12] = target: human PDGFR β on HEK293-PDGFR β cells (human) (UniProt P09619); experiment: HEK293-PDGFRβ cells with 500 uM liposome, plate reader
[13] = target: T3, human PDGFR β extra-cellular domain (ECD), Fc- and His-tagged (Sino Biological) (human, UniProt P09619 33-532); experiment: SPR (Biacore 3000), Fc/His PDGFR β ECD captured on protein A; 1B5 construct not stated
T3 construct: extracellular domain; Bought; also called hECD; Fc/His-tagged PDGFR β ECD; not shown: Fc tag and His tag
Experimental: FIG. 11: VHH (flag-his-tagged, or conjugated with HL488, NOTA or 800 CW) binding to human extracellular domain (ECD) of PDGFR β assessed with surface plasmon resonance (SPR). Fc/His-tagged PDGFR β ECD was bound to protein A chemically conjugated to CM4 sensor chip. Binding of VHHs was tested at 0.39-50 nM. Shown are representative SPR Biacore traces of tagged or conjugated 1B5 VHH (panels A); tagged or conjugated 1D4 VHH (panels B); tagged or conjugated 1H4 VHH (panels C) or tagged VHH 1E12 (panel D).
SPR analysis was performed using the Biacore 3000 instrument (GE Healthcare). Protein A was chemically bound to a CM4 sensor chip (GE Healthcare) according to the primary amine procedure to approximately 2100 response units (RU). Fc/His-tagged PDGFR β ECD at 0.4-2.07 ng/ul was bound to protein A at flow rate of 35 ul/min. Run buffer HBS-EP (GE Healthcare; 0.01 M HEPES pH 7.4, 0.15 M NaCl, 3 mM EDTA, 0.005% v/v Surfactant P20) was used for VHHs 1D4, 1H4 and 1E12 conjugates at 50, 25, 12.5, 6.25, 3.13, 1.56, 0.78 and 0.39 nM. For 1B5 conjugates, HBS-EP+0.5 M NaSCN was as run buffer to reduce non-specific binding to a control path without PDGFR β ECD. A flow rate 70 ul/min was used for VHH injections in volumes of 150 ul. Regeneration of the sensor CM4 chip was performed by three successive injections of c. 30 s 10 mM glycine-HCl pH 2, 10 mM glycine-HCl pH 1.5, and 0.5 M NaSCN/10 mM NaOH.

[14] = target: T3, human PDGFR β extra-cellular domain …; experiment: biotin-streptavidin ELISA, human PDGFR β ECD coated at 1 ug/ml
Experimental: In this example, the binding affinity of biotin-conjugated VHHs 1B5 and 1E12 to either human or mouse PDGFR β extra-cellular domain (ECD) was assessed using biotin-streptavidin ELISA. Human or mouse PDGFR β ECD was coated on immunoassay wells, where 1B5-biotin or 1E12-biotin were captured. Binding was detected using streptavidin-HRP and ODP as a substrate.
ELISA Method 96-well maxisorp (Nunc) immunosorp plates were coated with 1 ug/ml or 2 ug/ml of PDGFR β extracellular domain (ECD; Fc- and His-tagged, Sino Biological) or mouse PDGFR β ECD (R&D Systems) 4 ug/ml in PBS, 100 ul per well, at 4C overnight. Wells were washed thrice in PBS. Unspecific binding sites were blocked in 4% BSA/PBS for 1h at RT, followed by washing thrice in PBS. VHHs 1B5-biotin or 1E12-biotin, diluted at 0.01-100 nM in 1% BSA/PBS, was allowed to bind on ECD for 1 h at RT, followed by washing thrice in PBS. Streptavidin-horseradish peroxidase (HRP; GeneTex) was diluted 1:10,000 in 1% BSA/PBS and was incubated for 1 h at RT. […] Optical density was measured at 492 nm on a Synergy H1 microplate reader (BioTek). […]

[15] = target: human PDGFR β on HEK293-PDGFR β cells (human) (UniProt P09619); experiment: cell binding on ice for 1 h, fluorescence plate reader

B2: 1H4-HL488 (VHH, not shown: small tags and cut ends)
VHH: EVQLVESGGGLVQPGGSLRVSCSASWRTGNPFAMAWFRQAPGKERELIARISWTAGRTEYAESAKGRFTISRDVAKKTMYLQMNSLTPEDTGVYFCAARFVPSSGPTVFDTWGQGTQVTVSS
modifications: HiLyte Fluor 488-maleimide on the C-terminal cysteine of the C-Direct tag
detection limit [2]: 0.1 nM
MFI at 4° C. (binding) as percent of MFI at 37° C. (binding and uptake) [3]: 65 to 66%
concentration at which detectable by FACS [4]: 10 nM

B5: 1E12-HL488 (VHH, not shown: small tags and cut ends)
VHH: EVQLVESGGGLVQAGGSLRLSCAPSERSFSAYLMGWFRQAQGKEREFVAAWRWPTSTTYYSDSGKGRFTITGDNAKNTVELEMNSLKPEDTAVYYCAARRGILYGPATSPTAYDFWGQGTQVTVSS
modifications: HiLyte Fluor 488-maleimide on the C-terminal cysteine of the C-Direct tag
lowest concentration detectably bound or taken up (percentage of HL488-positive population) [2]: 10 nM
detection limit [7]: 100 nM

B6: 1B5-liposome-100 (protein)
VHH: EVQLVESGGGLVQPGGSLRLSCVASGFSFSESAMSWVRQAPGKGLEWLSGISSGGGRSTTYAESVEGRFTISRDDAKNTLMLQMNSLKSEDTAVYYCAKTGYCSGYNCNFAPRGQGTQVTVSS
modifications: coupled to maleimide-PEG-DSPE and post-inserted into calcein/rhodamine PE liposomes; 100 nanobodies per liposome
fold calcein fluorescence over non-targeted control, on ice (binding) [8]: 1.8 fold
fold calcein fluorescence over liposome-0, 0 h (binding and/or uptake) [9]: 2.2 fold
fold calcein fluorescence over liposome-0, 1 h (binding and/or uptake) [9]: 2.8 fold
fold calcein fluorescence over liposome-0, 3 h (uptake) [10]: 4.7 fold
fold calcein fluorescence over liposome-0, 6 h (uptake) [10]: 5.1 fold
fold rhodamine PE signal, 37° C. [11]: 2.4 fold
fold calcein fluorescence over non-targeted liposome-0, 37° C. (binding and uptake) [12]: 3.4 fold

B9: 1B5-HL488 (VHH, not shown: small tags and cut ends)
VHH: B6 VHH
modifications: HiLyte Fluor 488-maleimide on the C-terminal cysteine of the C-Direct tag
detection limit [2]: 0.1 nM
MFI at 4° C. (binding) as percent of MFI at 37° C. (binding and uptake) [3]: 52 to 58%
concentration at which detectable by FACS [4]: 1 nM
detection limit [15]: 1 nM

B10: 1D4-HL488 (VHH, not shown: small tags and cut ends)
VHH: EVQLVESGGGLVQAGDSLRLSCAVSGRAQSRDVVGWFRQAPGKEREFLALVTRSYSTYYGASVKGRFTISRDNAKNTVHLEMNSLKPEDTGVYYCAADQGFCSGSGCYDWRTFHVWGQGTQVTVSS
modifications: HiLyte Fluor 488-maleimide on the C-terminal cysteine of the C-Direct tag
detection limit [2]: 0.1 nM
MFI at 4° C. (binding) as percent of MFI at 37° C. (binding and uptake) [3]: 53 to 61%
concentration at which detectable by FACS [4]: 1 nM

Now from value to binder:

apparent affinity [1]: < 1 nM
B1: QPD-1H4 (VHH)
VHH: B2 VHH

binding result [5]: no binding (tested: 0.01-100 nM)
binding result [6]: no binding (tested: 0.01-100 nM)
B3: 1H4-biotin (VHH)
VHH: B2 VHH
modifications: Biotin-maleimide on the C-terminal cysteine of the C-Direct tag
notes: ID NO: 29 or 30; also called biotin-conjugated 1H4; VHH-biotin; not shown: C-terminal C-Direct tag with a free cysteine and an EPEA purification tag (vector pYQVQ11)

apparent affinity [1]: 10 nM
B4: QPD-1E12 (VHH)
VHH: B5 VHH

Kd [13]: 4 to 5 pM
apparent affinity [1]: 1 nM
B7: QPD-1B5 (VHH)
VHH: B6 VHH
notes: Purified, unconjugated VHH; also called VHH 1B5

binding result [5]: no binding (tested: 0.01-100 nM)
binding result [6]: no binding (tested: 0.01-100 nM)
EC50 [14]: 0.117 nM
B8: 1B5-biotin (VHH)
VHH: B6 VHH
modifications: Biotin-maleimide on the C-terminal cysteine of the C-Direct tag
notes: ID NO: 25 or 26; also called VHH 1B5-biotin; biotin-conjugated 1B5; not shown: C-terminal C-Direct tag with a free cysteine and an EPEA purification tag (vector pYQVQ11)

binding result [5]: no binding (tested: 0.01-100 nM)
binding result [6]: no binding (tested: 0.01-100 nM)
B11: 1D4-biotin (VHH)
VHH: B10 VHH
modifications: Biotin-maleimide on the C-terminal cysteine of the C-Direct tag
notes: ID NO: 27 or 28; also called biotin-conjugated 1D4; VHH-biotin; not shown: C-terminal C-Direct tag with a free cysteine and an EPEA purification tag (vector pYQVQ11)
